# Measured values taken from US12252534 (Scripps Research, dated 2025).
# Substitutions are numbered along the chain they refer to. Names may count otherwise.
# B1: UCHT-1-p-TriA (2×DUPA) (Fab, V domains shown)
# VH: EVQLVESGGGLVQPGGSLRLSCAASGYSFTGYTMNWVRQAPGKGLEWVALINPYKGVSTYNQKFKDRFTISVDKSKNTAYLQMNSLRAEDTAVYYCARSGYYGDSDWYFDVWGQGTLVTVSS
# VL: DIQMTQSPSSLSASVGDRVTITCRASQDIRNYLNWYQQKPGKAPKLLIYYTSRLESGVPSRFSGSGSGTDYTLTISSLQPEDFATYYCQQGNTLPWTFGQGTKVEIKR
# modifications: one pAcF conjugated to p-TriA (DUPA-linker); position in UCHT-1 not stated
# B2: HuL3H2 (Fab, V domains shown)
# VH: EVQLVESGGGLVQPGGSLKLSCAASGFTFNTYAMNWVRQASGKGLEWVARIRSKYNNYATYYADSVKDRFTISRDDSKNTLYLQMNSLKTEDTAVYYCVRHGNFGNSYVSWFAYWGQGTLVTVSS
# VL: QAVVTQEPSLTVSPGGTVTLTCGSSTGAVTTSNYANWVQQKPGQAFRGLIGGTNKRAPWTPARFSGSLLGGKAALTISGAQPEDEAEYYCALWYSNLWVFGGGTKLTVL
# notes: Humanized Fab expressed in Expi293F; also called VL3 + VH2 humanized Fab
# B3: HuL1H1 (Fab, V domains shown)
# VH: B2 VH with A49G
# VL: B2 VL with V38F, F46P, G48T, G51Y
# notes: Detected with anti-human kappa; also called VL1 + VH1 humanized Fab
# B4: HuL2H2 (Fab, V domains shown)
# VH: B2 VH
# VL: B2 VL with G51Y
# notes: Humanized Fab expressed in Expi293F; also called VL2 + VH2 humanized Fab
# B5: HuL4H2 (Fab, V domains shown)
# VH: B2 VH
# VL: B2 VL with G51Y, G71D
# notes: Humanized Fab expressed in Expi293F; also called VL4 + VH2 humanized Fab
# B6: HuL6H2 (Fab, V domains shown)
# VH: B2 VH
# VL: B2 VL with G23R, V38F, G43D, Q44H, A45L, F46P, G48T, G51Y, W59G, G71D
# notes: Humanized Fab expressed in Expi293F; also called VL6 + VH2 humanized Fab
# B7: HuL7H2 (Fab, V domains shown)
# VH: B2 VH
# VL: B2 VL with G23R, W59G, G71D
# notes: Humanized Fab expressed in Expi293F; also called VL7 + VH2 humanized Fab
# B8: HuL8H2 (Fab, V domains shown)
# VH: B2 VH
# VL: B2 VL with G43D, Q44H, A45L, W59G
# notes: Humanized Fab expressed in Expi293F; also called VL8 + VH2 humanized Fab
# B9: HuL9H2 (Fab, V domains shown)
# VH: B2 VH
# VL: B2 VL with W59G, T60V, A62D
# notes: Humanized Fab expressed in Expi293F; also called VL9 + VH2 humanized Fab
# B10: HuL10H2 (Fab, V domains shown)
# VH: B2 VH
# VL: B2 VL with V12T, G23R, G43D, Q44H, A45L, R47T, W59G, T60V, L69I, G71D
# notes: Humanized Fab expressed in Expi293F; also called VL10 + VH2 humanized Fab
# B11: huL5H2 (heavy chain SEQ ID NO: 41 and light chain SEQ ID NO: 39) (Fab, V domains shown)
# VH: B2 VH
# VL: QAVVTQEPSLTVSPGGTVTLTCRSSTGAVTTSNYANWVQQKPDHLFRGLIGGTNKRAPGTPARFSGSLLGDKAALTISGAQPEDEAEYYCALWYSNLWVFGGGTKLTVLK
# notes: also called VL5 kappa + H2 Fab
# B12: Murine anti-CD3 (antibody, V domains shown)
# VH: B2 VH with G15K, S41P, K78Q, N79S, T80I, S87N, V95M
# VL: QAVVTQESALTTSPGETVTLTCRSSTGAVTTSNYANWVQEKPDHLFTGLIGGTNKRAPGVPARFSGSLIGDKAALTITGAQTEDEAIYFCALWYSNLWVFGGGTKLTVL
# notes: also called murine anti-CD3 VL/VH
# B13: huL5H2 (SEQ ID NOS: 40, 42), pAcF double mutant Fab, unconjugated (Fab, V domains shown)
# VH: B2 VH
# VL: B11 VL
# modifications: p-acetylphenylalanine (pAcF) in place of S205 (S205TAG); p-acetylphenylalanine (pAcF) in place of K141 (K141TAG)
# notes: Expressed in E. coli with an orthogonal tRNA/synthetase; also called VL5 kappa 205TAG + H2 141TAG
# B14: DI-huL5H2 (SEQ ID NOS: 40, 44), de-immunized pAcF mutant Fab, unconjugated (Fab, V domains shown)
# VH: B2 VH with K19R, S41P, K89R, T90A
# VL: B11 VL
# modifications: p-acetylphenylalanine (pAcF) at light chain position 205 (205TAG); p-acetylphenylalanine (pAcF) at heavy chain position 141 (141TAG)
# notes: The heavy chain carries the de-immunizing mutations K19R, S41P, K89R and T90A relative to huL5H2; also called huL5H2_DI
# B15: huL5H2_DI-2×DUPA (SEQ ID NOS: 40, 44) (Fab, V domains shown)
# VH: B2 VH with K19R, S41P, K89R, T90A
# VL: B11 VL
# modifications: pAcF at position 205 conjugated by oxime to p-TriA (DUPA-linker); pAcF at position 141 conjugated by oxime to p-TriA (DUPA-linker)
# notes: De-immunized Fab with one DUPA on the heavy chain and one on the light chain; also called L5H2-DI-2X-DUPA; L5H2_DI-2xDUPA
# Biological target: T1, cynomolgus CD3 on cynomolgus T cells (HSC-F) (cynomolgus monkey, UniProt Q95LI5 22-198; Q95LI8 22-171; Q95LI7 23-181)
# T1 construct: whole, on cells; also called cyCD3+; cell surface CD3 on cynomolgus (HSC-F) T cells
# Assay: flow cytometry on HSC-F (cyCD3+) cells, detected with PE-conjugated anti-human kappa secondary antibody; control is the secondary antibody alone
# From the text: Flow cytometry was used to test binding of conjugates to cell surface CD3 on human (Jurkat) and cynomolgus (HSC-F) T cells or PSMA on C4-2 cells.
# T1 sequence (Q95LI5 22-198, chain 1 of 3): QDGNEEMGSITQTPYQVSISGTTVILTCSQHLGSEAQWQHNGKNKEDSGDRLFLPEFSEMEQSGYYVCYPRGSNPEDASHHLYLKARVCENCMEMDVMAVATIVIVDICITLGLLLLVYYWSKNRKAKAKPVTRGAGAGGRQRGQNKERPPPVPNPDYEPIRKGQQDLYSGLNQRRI
# T1 sequence (Q95LI8 22-171, chain 2 of 3): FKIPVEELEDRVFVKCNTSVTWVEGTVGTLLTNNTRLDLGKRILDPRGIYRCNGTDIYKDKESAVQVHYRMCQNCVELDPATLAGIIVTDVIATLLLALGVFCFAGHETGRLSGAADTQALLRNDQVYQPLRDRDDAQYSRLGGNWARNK
# T1 sequence (Q95LI7 23-181, chain 3 of 3): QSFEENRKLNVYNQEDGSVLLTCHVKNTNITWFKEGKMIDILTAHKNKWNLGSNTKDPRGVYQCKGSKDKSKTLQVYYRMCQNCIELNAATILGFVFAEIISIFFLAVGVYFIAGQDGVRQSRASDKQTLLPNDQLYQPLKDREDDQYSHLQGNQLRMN
row,Binder,binding result
1,B1,no binding

# Biological target: T2, human CD3 on human T cells (Jurkat) (human, UniProt P07766 23-207; P04234 22-171; P09693 23-182)
# T2 construct: whole, on cells; also called huCD3+; cell surface CD3 on human (Jurkat) T cells
# Assay: flow cytometry, Jurkat cells, 8 nM antibody
# From the text: (§1) To express humanized Fabs in mammalian cells, VH genes (VH1 and VH2) and VL genes (VL1~VL10) shown in FIG. 2 were individually cloned into the pFUSE vector under the IL2 signal peptide sequence. Light and heavy chains expression vectors were used to co-transfect Expi293F cells according to manufacturer's protocol. On day 3 or 4, cultured media was harvested and secreted Fabs were purified by Protein G chromatography. Binding affinity of humanized candidates for human and cynomolgus T cells were evaluated by flow cytometry. Briefly, cells were incubated with humanized Fabs at 4° C. for 30 min and washed twice with staining buffer (1% BSA in PBS). […] After several washes, samples were acquired on a BD LSR II or BD Accuri C6 and analyzed using FlowJo 7.6.2 software.
# T2 sequence (P07766 23-207, chain 1 of 3): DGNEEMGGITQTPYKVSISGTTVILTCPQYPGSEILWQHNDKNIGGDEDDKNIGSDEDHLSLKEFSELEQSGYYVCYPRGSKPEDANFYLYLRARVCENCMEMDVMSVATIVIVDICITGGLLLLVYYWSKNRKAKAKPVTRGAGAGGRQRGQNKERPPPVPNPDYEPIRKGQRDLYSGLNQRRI
# T2 sequence (P04234 22-171, chain 2 of 3): as the sequence (Q95LI8 22-171, chain 2 of 3) above, with V5I, K15N, V20I, T32S, N33D, N34I, A64T, N74S, L83V, R141H counted along it
# T2 sequence (P09693 23-182, chain 3 of 3): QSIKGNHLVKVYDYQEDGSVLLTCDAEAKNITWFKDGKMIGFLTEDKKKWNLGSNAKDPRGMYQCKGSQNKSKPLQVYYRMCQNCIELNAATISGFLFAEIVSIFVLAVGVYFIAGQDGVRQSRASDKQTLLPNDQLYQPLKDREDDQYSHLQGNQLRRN
row,Binder,MFI
1,B2,610
2,B3,1450
3,B4,1450
4,B5,620
5,B6,573
6,B7,4240
7,B8,7670
8,B9,2760
9,B10,3270
10,B11,31700
11,B12,28500

# Biological target: T2, human CD3 on human T cells (Jurkat)
# Assay: flow cytometry, Jurkat cells, 0.32 nM antibody
# From the text: as §1
row,Binder,MFI
1,B2,600
2,B3,1400
3,B4,1400
4,B5,599
5,B6,572
6,B7,1570
7,B8,837
8,B9,637
9,B10,688
10,B11,4430
11,B12,3560

# Biological target: T2, human CD3 on human T cells (Jurkat)
# Assay: flow cytometry, Jurkat cells, 1.6 nM antibody
# From the text: as §1
row,Binder,MFI
1,B2,610
2,B3,1440
3,B4,1440
4,B5,615
5,B6,597
6,B7,2040
7,B8,2120
8,B9,986
9,B10,1610
10,B11,13400
11,B12,10500

# Biological target: T2, human CD3 on human T cells (Jurkat)
# Assay: flow cytometry titration on Jurkat cells
# From the text: as §1
row,Binder,IC50
1,B2,17.7 nM
2,B6,677 nM
3,B7,70.4 nM
4,B8,78 nM
5,B9,119 nM
6,B10,139 nM
7,B11,4.46 nM
8,B12,7.73 nM

# Biological target: T2, human CD3 on human T cells (Jurkat)
# Assay: flow cytometry, Jurkat cells, 0 nM antibody (background)
# From the text: as §1
row,Binder,MFI
1,B2,559
2,B3,1400
3,B4,1400
4,B5,559
5,B6,559
6,B7,1250
7,B8,559
8,B9,559
9,B10,559
10,B11,1400
11,B12,1400

# Biological target: T2, human CD3 on human T cells (Jurkat)
# Assay: flow cytometry, Jurkat cells, 40 nM antibody
# From the text: as §1
row,Binder,MFI
1,B2,650
2,B3,1450
3,B4,1450
4,B5,620
5,B6,598
6,B7,13600
7,B8,22000
8,B9,9950
9,B10,12700
10,B11,41600
11,B12,41400

# Biological target: T1, cynomolgus CD3 on cynomolgus T cells …
# Assay: flow cytometry titration on HSC-F cells
# From the text: (§2) Flow cytometry was used to assess for potential differential binding to cell surface CD3 on human (Jurkat) and cynomolgus T cells as a result of the "de-immunization" process. […] After several washes, samples were acquired on a BD LSRII or BD Accuri C6 and analyzed using FlowJo software.
row,Binder,IC50
1,B13,3.8 nM
2,B14,3.4 nM

# Biological target: T2, human CD3 on human T cells (Jurkat)
# Assay: flow cytometry titration on Jurkat cells
# Remark: another data set of the same source
# From the text: as §2
row,Binder,IC50
1,B13,5.9 nM
2,B14,4.6 nM

# Biological target: T2, human CD3 on human T cells (Jurkat)
# Assay: flow cytometry, Jurkat cells, 200 nM antibody
# From the text: as §1
row,Binder,MFI
1,B2,643
2,B3,1460
3,B4,1460
4,B5,620
5,B6,835
6,B7,28900
7,B8,42000
8,B9,27900
9,B10,31300
10,B11,48000
11,B12,50600

# Biological target: T3, recombinant human CD3 delta/epsilon complex (hu.CD3 d/e-Fc) (human, UniProt P04234 22-105; P07766 23-126)
# T3 construct: not shown: Fc portion
# Assay: Octet (BLI), hu.CD3de-Fc captured on Fc sensor, conjugate as analyte; unit inferred, M implied
# Procedure: (§3) Analytes were serially diluted 1.2× from 6 μg/mL to 1 μg/mL in the 1×PBS. 100 mM glycine (pH 2.87) regeneration solution, and 1×PBS for baseline stabilization was also prepared. Biosensor, ligand and analytes pair is following: (1) CH-1-antibodies-recombinant human or cynomolgus monkey CD3 delta/epsilon complex, (2) Fc-recombinant human or cynomolgus monkey CD3 delta/epsilon complex-antibodies (3) CH-1-antibodies-recombinant human or cynomolgus monkey PSMA; and (4) Ni-NTA-recombinant human or cynomolgus monkey PSMA-antibodies. Prior to the binding measurements, the sensor tips were pre-hydrated in 1×PBS for 30 min, followed by 1 cycles of pre-conditioning with 60-sec dips in glycine (pH 2.87). The sensor tips were then transferred to the ligand-containing wells for a 180-sec loading step. After a 120-sec baseline dip in 1×PBS, the binding kinetics were measured by dipping the ligand-coated sensors into the wells containing corresponding analyte at varying concentrations. The binding interactions were monitored over a 180-sec association period and followed by a 7.5 to 15-min dissociation period in new wells containing fresh 1×PBS.
# T3 sequence (P04234 22-105, stated change not applied, chain 1 of 2): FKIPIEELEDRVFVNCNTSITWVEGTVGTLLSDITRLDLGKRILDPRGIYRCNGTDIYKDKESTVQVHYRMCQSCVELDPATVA
# T3 sequence (P07766 23-126, stated change not applied, chain 2 of 2): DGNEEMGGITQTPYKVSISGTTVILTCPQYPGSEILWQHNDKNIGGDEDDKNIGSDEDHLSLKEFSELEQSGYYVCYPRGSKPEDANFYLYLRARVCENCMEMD
row,Binder,Kd
1,B15,11 nM

# Biological target: T3, recombinant human CD3 delta/epsilon …
# Assay: Octet (BLI), conjugate captured on CH1 sensor, hu.CD3 d/e-Fc as analyte; unit inferred, M implied
# Procedure: as §3
row,Binder,Kd
1,B15,5.13 nM

# Biological target: T2, human CD3 on human T cells (Jurkat)
# Assay: flow cytometry, Jurkat cells, 1000 nM antibody
# From the text: as §1
row,Binder,MFI
1,B2,666
2,B3,1470
3,B4,1470
4,B5,650
5,B6,2200
6,B7,35400
7,B8,54600
8,B9,39400
9,B10,46300
10,B11,51800
11,B12,54400
